This note sets out measurements from US7407934.

Broadly, the IC50 is the midpoint of a concentration-inhibition curve.

29Pro-h-Amylin (peptide), sequence (peptide): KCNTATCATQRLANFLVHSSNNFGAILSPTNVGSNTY
28Pro-h-Amylin (peptide), sequence (peptide): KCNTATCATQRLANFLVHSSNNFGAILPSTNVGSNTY

The experiment concerns the target amylin receptor (rat basal forebrain membranes containing the nucleus accumbens and surrounding regions) (rat). The experiment is described as follows: competition with 125I-Bolton-Hunter rat amylin on rat basal forebrain membranes, filtration.
For the substance 1Ala-h-Amylin (peptide), the IC50 is 0.148 nM.
Next, 1Ser-h-Amylin (peptide): 0.033 nM; 28Pro-h-Amylin (peptide): 0.015 nM; 29Pro-h-Amylin (peptide): 0.064 nM.
Regarding “purified human amylin (from UniProt P10997 34-70) (peptide)”, the IC50 stood at 0.05 nM.
